Assay results taken from US20140287419A1, “Compositions Having Dicamba Decarboxylase Activity and Methods of Use” (priority 2013, published 2014).

B1: 75 (protein, listed as Ectocarpus siliculosus)
chain: MAKIDSYTHFACPAFMDHLEAESGHPMVFRGLFSSIPELSDIDLRIRYMDEHGIDVHCLVPLPWLECEPGLHADEGKALEACRIANDEMARVVARFPDRLIGVALIPTTTEQAMIQETTRAVKELGMAGVALFVGPTAKPPDMACFEGLYRTCEELGAVVWMHPCRPQSYADYDSYKGEGSKHQIWNTFGWIYDTSVAMVHIALAGVFRRYPGLKVVTHHHGAMVPFFTARFDTQRRNFQEVEGDDLLEDLRLFYCDTATFGESAANIQQAIDFFGKSQVLFGTDTPMDMGTRGMFTRTTIASVEALGAAPEDKESFYAGNVLDMLGERFAGISGARGAVAARPKGDSTRIAASL
B2: 70 (protein, listed as Alicyclobacillus acidocaldarius)
chain: MAIEPNRAADVHTHFLPTEVLEFLKREPRIQVDLERRAPDKEPFLTVEGRWSFELKRMFVDFEAFASAYRQAGIGLALVSPLPQLFVYHLPAEMGAQVAEVYNDALRDVLAPHRERFRPLATLPLADPTAAARELERRMDEGFVGAIVGPGVGEALIGDEAFWPLWEVADARRAVLFLHPLLHADPRAARLMLPNLVGVPWETTLAAAHLVLSGLLDRYPGARVLLAHGGGFLPYQIGRIEQGYDVWPQVRGRLQDRPTAYLRRMFYDNVLWSDAALRCLIDVVGADRVLAGSDFPFDLSAWPPRPGADVSVLAGGSGREGRLS
B3: 77 (protein)
chain: MALIDLHAHAPHPGYYNQHPHWGPFFERHEDGDVKLRVGDWILTLGSPERKALVRAGKGPTVEEYQARWADPKVRLAGMDAAGQNAQVVSVPSHCYMYWAEKEFSVPFATKVNDTFAEYCSAAPDRLMFWAHAALNAPEQAALELRRACTELGAKGLVAGGANFGGLEFDSPELDPVWKVLCDLDLPMFIHGYNQSVTWGKKANDDRYETTAIVGMQYDETRCFWNLVCGGVLDRFPGLKVYITHGGGYVPYQLGRLAQCNGNLDVAHNKKPVLEYLKNNFYFDVELHEVPMRQALIDIIGADRVLYGSNFGGSDAVRHDLTEGLRLSDDDLQKIRWKNACKLLHLDPAKIGEPAKKQAVSA
modifications: Burkholderia xenovorans
B4: 73 (protein, listed as Sphaerobacter thermophilus)
chain: MARIDAHAHAQPPEYLDALLASGRYESVRDAEGRIVVRERGSRFLTITPQMHHPEQRVAEMDEAGIDMQILSVTTPQVYFLQGQAAVDLARRCNDYLADIVRSYPTRFRALASVPLTADPDAAVREFVRCLDDLGMVGAIIGSNIDGRPIDDPAFDAFYAEADRRATTLFIHPMVPAGIEVMNPYALAPLVGFMFDTTLAVSRLIFSGFFERYPRVKVLVGHLGAAVPYLAGRLDIGWRSYSDCQGIPHPPTEYIRRLYLDTVSFHAPALRCALETVGPDRIVFGSDYPHVIGDVGGAIASIQQALPATTHDGVLGHTAAELFGVSA
B5: 74 (protein, listed as Ramlibacter tataouinensis)
chain: MATVIDVHTHMFTTKWLELLKKEGGQYNIQTRPDGQQEIFRGNTPVVIPQKGHFDWKLRIQHMDQAGIDVSVVSLTCPNVYWGGEDVSVRAAREANDNVAQAQTAYPDRIRWFASLPWEYMATVIDVHTHMFTTKWLELLKKEGGQYNIQTRPDGQQEIFRGNTPVVIPQKGHFDWKLRIQHMDQAGIDVSVVSLTCPNVYWGGEDVSVRAAREANDNVAQAQTAYPDRIRWFASLPWEYPQRAVEELERSCAQGAAGVMVLANVAGRSLTDPLFAPVWAEIDRRALPVLVHPTDPPGVDLMDMTKFDLSWSVGFMFDTTLAITRMIFEGFFDRYPNLRIIASHGGGTLPYLVGRFEKGDEVELASRRQMKRKPTDYLRHIHYDCITYNLGALQYLISVVGAGQVMFGTDWPHWVHDTRGAFANTAQLPQEQTRAVRGANAQRLFKL
B6: 79 (protein)
chain: MATTTTPSTLIATLESHLTPTLAFTSPTTSPTQPALHLIPPTTLTKLRNLGPGRVKDMHMLGHSRQIISHIPVAAPPQICSRFNDAIHAATMTNTAKFSVLAVLPTDGMEAAKELARCVSKYRFVGGVIGLNRGLRINGEGWEELWGLAERLRIPIMFREMWPLAFEIVDYQHHLPYSALGPILTQLHTSHTSSPLPLVRLYLSSVFDHYPSLRLVLAHPGSLPSLVPRIESLINSIPATDKPKRSFLDVWQHNIYLTTADAQDMSSLRALLEQIPVDRVLYASNYPFEERGNELMNELRESEFLTNIEWERVAWVNAETLFNLKEAGTKEARQLTTIPSSRS
modifications: Pyrenophora teres
B7: 78 (protein, listed as Marinobacter adhaerens)
chain: MALIDLHAHAPHPDYYDQHPHWGPAFELQSDGDIKLRVGHWVLSLGAPERKQALREAHARGETLDVQEYMAKWRDPEHRLASMDAAGQNAQVLSVPSHCYMYWAEPEFGVPFAKKVNDSLAEYCSAAPDRLMFWAHAPLNVPKEAAKEIRRACTELGAKGLVAGGSNFGGLEFDSPEMDPVWEALCDLDLPMFVHGYNQSVTWGEEANTDRYETTAIVGMNYDESKCFWYMINGGVFDRFPNLKVYITHGGGFVPYQLGRMAQTNPNLDTYHNKKPFLEYLKNFYFDVELHEVPMRQAMVEVIGADRVLYGSNFGGSDAVRHDLTDDLKLSQEDLDKIRWKNACDLLHLDPNKLGKVRG
B8: 71 (protein, listed as Burkholderia dolosa)
chain: MARAGHRAARTRQSRPGDRTMTCSCCMSAGRRRVLGAFAALAGAPKGPRAASAAQPAAASKPTRGDATARNRHSRALLPGKASASWSATKASGSGGAFAWDDTTFTFRTPAGGLGPLPMKFIDVDARLRDMDASGVDVQALSLSVPMAYWGDRPFNAKLARAWNTAASRVHVRAPDRFVVLATLPMLDATDAIDELERASELPGVRGVYMGTNIDNRDLDDPRFAPVFARIEQLGLPVFLHPQQTVGGARLGDFYLSNLLGNPFDTAIAASHLILGGVLDRHPALHFTLPHAGGALPILVGRLDAGWTVRAETRRLAHQPSGYLRRFSYDTVSHSGPVLNFLIENVGIDRLVLGSDYCFDMGYEQPVRFLDRLDLTPDERAMVIGGNAGRLLRI
B9: 69 (protein, listed as Microbacterium testaceum)
chain: MATSTEGQDVTDVHAHLLMPGLHAEVERRVPDEVQAAADLELRRNGLASLQASGRMIGERFPRLTDVRARLAAMDEQGVDRQWVSPSPNHFYPWANEGLATWASGEANRLIAEHVALAPDRLVGLGVVPLQHPHLVVDALDDAVLGRGLAGVEISSFAGDVELSDERLESFWARAAELRAVVFLHPFGCSLDERLDRFYLSNTVGQPTENAVALSHLIFSGVLDRHPGLRLIAAHGGGYLPTAIGRSDRAWRVRPEARGCAHAPSTYLSKLWFDTVVHDERALRWLVEAAGADRVLLGSDFPFDMGLDDPVAFVRGAGLQDAEVSGILGGNAAELLRTRVHA
B10: 76 (protein, listed as Polymorphum gilvum)
chain: MAKKIDIFNHIWPEPFFKALIAHIGEMTDITMRSGAVPMMTNLDRRFEVMDMFGPDYMQVLSLASPPLEKLADPAKALELSRIGSDSLAELCQRYPERFPAFIGTAPLSNPAAVVGECRRAIEDLGAAGMQIFTNVAGKPLDLAEFEPFFEYMASAGKPVWLHPARGEAFADYQTEKRSEYEIWWTFGWPYETSAAMARLVFSRMFDKYPGLKVITHHAGGMVPFFEGRVGPGWDQMGARTTDRDLAAVRKALKRPHLDYFKEFYADTASFGSRKAIEHAIEFFGEDRVLFASDAPFDPEGGPMYIRETMRCIDSLDLTDAQRRKIYHGNATALLGLSL
B11: 5 (protein, listed as Staphylococcus aureus)
chain: MAQNNMEANQMKSITFEEHYVIEDIQKETMNAISADPKGVPMKVMLEGLEKKTGFTNADELSHHDERIQFMNNQDVQIQVLSYGNGSPSNLVGQKAIELCQKANDQLANYIAQYPNRFVGFATLPINEPEAAAREFERCINDLGFKGALIMGRAQDGFLDQDKYDIIFKTAENLGVPIYLHPAPVNSDIYQSYYKGNYPEVTAATFACFGYGWHIDVGIHAIHLVLSGIFDRYPKLNMIIGHWGEFIPFFLERMDEALFAEHLNHPVSYYFKNNFYITPSGMLTKPQFDLVKKEAGIDRILYAADYPYIEPEKLGVFLDELGLTDEEKEKISYTNGAKLLGLSSNN
B12: 72 (protein)
chain: MADCPCCVSPKRRRLLGSVSAIAAGMMAGLPALAAQPSTAAAGTGKPLSIDIHAHYYSESFLGLLGGEGKQFGGHFFRNDDSFTFQTPAGGLGPLPMKFIDVEQRVRDMDNSGVDVQAISLSVPMVYWADRTLNAKLARAWNTAASDVHRKHPTRFVVLATLPMLNANDAIDELEFAAGLPGVRGIYMGTNINNRDLDDPLFSPIFKRIEQLNLPIFLHPQQTVGGARLADFYLSNLLGNPFDTAIAASHLILGGVLDKYPALHFSLPHAGGALPILVGRIDAGWSMRSETKRVAQKPSSYLRRFSYDTISHSGPTLDFLIRNIGADRLVLGSDYCFDMGYEQPVRFLDRLALPDDQKRMVVGGNAARLLNL
modifications: Cupriavidus necator
B13: 6 (protein)
chain: MAEILSPEESIYYSKLSNDILAEGIKKNPTRFRGFAALPTPDPIQAAMELERCIKLGGFVGAIINGHINGHYLDEIQFDPILEAADALDVPLYIHPAVPPKAIIDTYYKMNDTYAQTVMVSGGWGWHIETGVHVLRLISSGVFDRHPNLKIVIGHLGEGLPFFMHRLNNAIGGNLKKSYSTYLKENIYYTISGFNDPDLFQFVLKKVGENNIMFSSDYPFNFPKREVELFNELNISEEVREKISFKNAERILKI
modifications: Treponema brennaborense

Experiment: 14C assay with IPTG-induced recombinant E. coli cells (14CO2 capture from [14C]-carboxyl-labeled dicamba)
Conditions: IPTG-induced recombinant E. coli cells; [14C]-carboxyl-labeled dicamba; 14CO2 capture

| Molecule | Dicamba Decarboxylase Activity |
| --- | --- |
| B1 | Low |
| B2 | Low |
| B3 | No |
| B4 | Low |
| B5 | Low |
| B6 | High |
| B7 | Low |
| B8 | Low |
| B9 | No |
| B10 | No |
| B11 | High |
| B12 | Low |
| B13 | No |

Same assay, conditions: dicamba decarboxylation activity of the protein of the given SEQ ID NO

| Molecule | Enzymatic Detection level |
| --- | --- |
| B1 | Low |
| B2 | Low |
| B3 | No |
| B4 | Low |
| B5 | Low |
| B6 | High |
| B7 | Low |
| B8 | Low |
| B9 | No |
| B10 | No |
| B11 | High |
| B12 | Low |
| B13 | No |
